Residue numbers refer to the chain shown, from its start.

First the molecules themselves.
T1: catalytic sub-unit of the Telomerase protein peptide on HLA-A*02:01 (human)
T1 peptide: ILAKFLHWL

B1: TCR of SEQ ID NOs 15 and 23 (TCR, V domains shown)
Valpha: GIQVEQSPPDLILQEGANSTLRCNFSDSVNNLQWFHQNPWGQLINLFYIPSGTKQNGRLSATTVATERYSLLYISSSQTTDSGVYFCAVDSATTGMFGYIFGTGTRLKVLA
Vbeta: NAGVTQTPKFQVLKTGQSMTLQCAQDMNHEYMSWYRQDPGMGLRLIHYSVGAGITDQGEVPNGYNVSRSTTEDFPLRLLSAAPSQTSVYFCGIQPQGTEAFFGQGTRLTVV
B2: TCR of SEQ ID NOs 21 and 65 (TCR, V domains shown)
Valpha: B1 Valpha with T94S
Vbeta: B1 Vbeta with V50R, G51W, A52V, I54D, I93V
B3: TCR of SEQ ID NOs 15 and 68 (TCR, V domains shown)
Valpha: B1 Valpha
Vbeta: B1 Vbeta with V50I, G51W, A52E, G53F, I54E
B4: TCR of SEQ ID NOs 15 and 66 (TCR, V domains shown)
Valpha: B1 Valpha
Vbeta: B1 Vbeta with V50R, G51W, A52V, I54D
B5: TCR of SEQ ID NOs 15 and 70 (TCR, V domains shown)
Valpha: B1 Valpha
Vbeta: B1 Vbeta with V50I, G51C, A52W, I54C, I93V
B6: TCR of SEQ ID NOs 15 and 69 (TCR, V domains shown)
Valpha: B1 Valpha
Vbeta: B1 Vbeta with V50I, G51W, A52E, G53F, I54E, I93V

In the test the target is T1, catalytic sub-unit of the Telomerase …. Description: Kd or kinetics.
For B1, the binding result was “recognises”.
The same measure for B2: “recognises”.
On to B3, for which the binding result is recorded as “recognises”.
The same measure for B4: “recognises”; for B5: “recognises”.
The value for B6 was “recognises”.

The values are drawn from US20100068186A1 (published 2010).
